Substrate: NC(=O)c1ncn([C@@H]2O[C@H](COP(=O)(O)O)[C@@H](O)[C@H]2O)c1N
Settings: Homo sapiens
Description: Activity of human wild-type ATIC assessed as IMPCH activity

B1: Bifunctional purine biosynthesis protein ATIC (Homo sapiens), P31939 (protein)
chain: MAPGQLALFSVSDKTGLVEFARNLTALGLNLVASGGTAKALRDAGLAVRDVSELTGFPEMLGGRVKTLHPAVHAGILARNIPEDNADMARLDFNLIRVVACNLYPFVKTVASPGVTVEEAVEQIDIGGVTLLRAAAKNHARVTVVCEPEDYVVVSTEMQSSESKDTSLETRRQLALKAFTHTAQYDEAISDYFRKQYSKGVSQMPLRYGMNPHQTPAQLYTLQPKLPITVLNGAPGFINLCDALNAWQLVKELKEALGIPAAASFKHVSPAGAAVGIPLSEDEAKVCMVYDLYKTLTPISAAYARARGADRMSSFGDFVALSDVCDVPTAKIISREVSDGIIAPGYEEEALTILSKKKNGNYCVLQMDQSYKPDENEVRTLFGLHLSQKRNNGVVDKSLFSNVVTKNKDLPESALRDLIVATIAVKYTQSNSVCYAKNGQVIGIGAGQQSRIHCTRLAGDKANYWWLRHHPQVLSMKFKTGVKRAEISNAIDQYVTGTIGEDEDLIKWKALFEEVPELLTEAEKKEWVEKLTEVSISSDAFFPFRDNVDRAKRSGVAYIAAPSGSAADKVVIEACDELGIILAHTNLRLFHH
For B1, the Km was 1.9 µM.

— ChEMBL document CHEMBL1156444, “Structure-based design, synthesis, evaluation, and crystal structures of transition state analogue inhibitors of inosine monophosphate cyclohydrolase” (J Biol Chem, 2007)
